Test results taken from US20110091994A1, “Methods for Screening Compounds for Treating and/or Preventing an Hepatitis C Virus Infection” (priority 2008, published 2011).

Legend:
[1] = biological target: T1, HCV ORFs (Gal4-DB fusions) (Hepatitis C virus genotype 1b, UniProt Q9WMX2); assay type: binding, HCV genotype 1b, isolate con1; details: HCV protein NS3 as bait; human protein as prey
T1 construct: expressed in transfected cells; host or cells: Saccharomyces cerevisiae MAV203 (IMAP1) / AH109 (IMAP2)
T1 sequence (Q9WMX2 1027-1657): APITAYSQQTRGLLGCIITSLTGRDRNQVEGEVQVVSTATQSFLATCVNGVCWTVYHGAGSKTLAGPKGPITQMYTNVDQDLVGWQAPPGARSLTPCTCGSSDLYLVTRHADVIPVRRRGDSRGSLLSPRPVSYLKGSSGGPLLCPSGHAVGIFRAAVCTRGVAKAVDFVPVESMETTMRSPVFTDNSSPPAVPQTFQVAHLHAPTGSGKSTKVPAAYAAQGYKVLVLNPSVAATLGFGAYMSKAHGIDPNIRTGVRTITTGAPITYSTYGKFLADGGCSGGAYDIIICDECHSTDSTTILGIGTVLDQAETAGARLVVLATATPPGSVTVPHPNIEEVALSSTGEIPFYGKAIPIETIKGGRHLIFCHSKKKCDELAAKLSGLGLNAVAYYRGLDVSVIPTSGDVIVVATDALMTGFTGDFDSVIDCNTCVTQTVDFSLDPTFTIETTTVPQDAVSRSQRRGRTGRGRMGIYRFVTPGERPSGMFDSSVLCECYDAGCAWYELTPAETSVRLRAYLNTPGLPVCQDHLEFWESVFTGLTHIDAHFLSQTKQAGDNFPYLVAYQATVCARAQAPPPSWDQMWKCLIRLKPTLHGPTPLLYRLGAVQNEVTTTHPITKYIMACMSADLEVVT

[2] = test system: HCV ORFs (Gal4-DB fusions); assay type: binding, HCV genotype 1b, isolate con1; details: human protein listed by gene symbol; the value names the HCV protein it interacts with
HCV proteins = biological target: T2, HCV proteins (Hepatitis C virus genotype 1b, UniProt Q9WMX2); assay: Validation by Y2H pairwise matrices; assay type: binding; details: validation of interaction with HCV protein NS3;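 further: yeast two-hybrid pairwise tests of interactions first found in Y2H screens of HCV bait proteins against human cDNA libraries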
T2 construct: expressed in transfected cells
T2 sequence (Q9WMX2 1027-1657): as above
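Wherever IMAP Y2H IMAP1 (number of IST) is given: yeast two-hybrid screens using HCV genotype 1b proteins fused to Gal4-DB as baits against prey cDNA libraries from human spleen and foetal brain, IMAP1 via transformation and IMAP2 via mating.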
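Wherever IMAP Y2H IMAP2 (number of IST) is given: yeast two-hybrid screens using HCV genotype 1b proteins fused to Gal4-DB as baits against prey cDNA libraries from human spleen and foetal brain, IMAP1 via transformation and IMAP2 via mating.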
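Wherever Interaction with viral protein is given: yeast two-hybrid screens using HCV genotype 1b proteins fused to Gal4-DB as baits against prey cDNA libraries from human spleen and foetal brain, IMAP1 via transformation and IMAP2 via mating.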

Row | Molecule | IMAP Y2H IMAP1 (number of IST) [1] | Interaction with viral protein [2] | Y2H matrices (HCV proteins) | IMAP Y2H IMAP2 (number of IST) [1]
1 | XRN2 (protein, UniProt Q9H0D6 1-950, looked up) 5'-3' exoribonuclease 2: MGVPAFFRWLSRKYPSIIVNCVEEKPKECNGVKIPVDASKPNPNDVEFDNLYLDMNGIIHPCTHPEDKPAPKNEDEMMVAIFEYIDRLFSIVRPRRLLYMAIDGVAPRAKMNQQRSRRFRASKEGMEAAVEKQRVREEILAKGGFLPPEEIKERFDSNCITPGTEFMDNLAKCLRYYIADRLNNDPGWKNLTVILSDASAPGEGEHKIMDYIRRQRAQPNHDPNTHHCLCGADADLIMLGLATHEPNFTIIREEFKPNKPKPCGLCNQFGHEVKDCEGLPREKKGKHDELADSLPCAEGEFIFLRLNVLREYLERELTMASLPFTFDVERSIDDWVFMCFFVGNDFLPHLPSLEIRENAIDRLVNIYKNVVHKTGGYLTESGYVNLQRVQMIMLAVGEVEDSIFKKRKDDEDSFRRRQKEKRKRMKRDQPAFTPSGILTPHALGSRNSPGSQVASNPRQAAYEMRMQNNSSPSISPNTSFTSDGSPSPLGGIKRKAEDSDSEPEPEDNVRLWEAGWKQRYYKNKFDVDAADEKFRRKVVQSYVEGLCWVLRYYYQGCASWKWYYPFHYAPFASDFEGIADMPSDFEKGTKPFKPLEQLMGVFPAASGNFLPPSWRKLMSDPDSSIIDFYPEDFAIDLNGKKYAWQGVALLPFVDERRLRAALEEVYPDLTPEETRRNSLGGDVLFVGKHHPLHDFILELYQTGSTEPVEVPPELCHGIQGKFSLDEEAILPDQIVCSPVPMLRDLTQNTVVSINFKDPQFAEDYIFKAVMLPGARKPAAVLKPSDWEKSSNGRQWKPQLGFNRDRRPVHLDQAAFRTLGHVMPRGSGTGIYSNAAPPPVTYQGNLYRPLLRGQAQIPKLMSNMRPQDSWRGPPPLFQQQRFDRGVGAEPLLPWNRMLQTQNAAFQPNQYQMLAGPGGYPPRRDDRGGRQGYPREGRKYPLPPPSGRYNWN | 1 | NS3 | + | –
2 | XAB2 (protein, UniProt Q9HCS7 1-855, looked up) Pre-mRNA-splicing factor SYF1: MVVMARLSRPERPDLVFEEEDLPYEEEIMRNQFSVKCWLRYIEFKQGAPKPRLNQLYERALKLLPCSYKLWYRYLKARRAQVKHRCVTDPAYEDVNNCHERAFVFMHKMPRLWLDYCQFLMDQGRVTHTRRTFDRALRALPITQHSRIWPLYLRFLRSHPLPETAVRGYRRFLKLSPESAEEYIEYLKSSDRLDEAAQRLATVVNDERFVSKAGKSNYQLWHELCDLISQNPDKVQSLNVDAIIRGGLTRFTDQLGKLWCSLADYYIRSGHFEKARDVYEEAIRTVMTVRDFTQVFDSYAQFEESMIAAKMETASELGREEEDDVDLELRLARFEQLISRRPLLLNSVLLRQNPHHVHEWHKRVALHQGRPREIINTYTEAVQTVDPFKATGKPHTLWVAFAKFYEDNGQLDDARVILEKATKVNFKQVDDLASVWCQCGELELRHENYDEALRLLRKATALPARRAEYFDGSEPVQNRVYKSLKVWSMLADLEESLGTFQSTKAVYDRILDLRIATPQIVINYAMFLEEHKYFEESFKAYERGISLFKWPNVSDIWSTYLTKFIARYGGRKLERARDLFEQALDGCPPKYAKTLYLLYAQLEEEWGLARHAMAVYERATRAVEPAQQYDMFNIYIKRAAEIYGVTHTRGIYQKAIEVLSDEHAREMCLRFADMECKLGEIDRARAIYSFCSQICDPRTTGAFWQTWKDFEVRHGNEDTIKEMLRIRRSVQATYNTQVNFMASQMLKVSGSATGTVSDLAPGQSGMDDMKLLEQRAEQLAAEAERDQPLRAQSKILFVRSDASREELAELAQQVNPEEIQLGEDEDEDEMDLEPNEVRLEQQSVPAAVFGSLKED | 2 | NS3 | + | –
3 | ZCCHC7 (protein, UniProt Q8N3Z6 1-543, looked up) Zinc finger CCHC …: MMFGGYETIEAYEDDLYRDESSSELSVDSEVEFQLYSQIHYAQDLDDVIREEEHEEKNSGNSESSSSKPNQKKLIVLSDSEVIQLSDGSEVITLSDEDSIYRCKGKNVRVQAQENAHGLSSSLQSNELVDKKCKSDIEKPKSEERSGVIREVMIIEVSSSEEEESTISEGDNVESWMLLGCEVDDKDDDILLNLVGCENSVTEGEDGINWSISDKDIEAQIANNRTPGRWTQRYYSANKNIICRNCDKRGHLSKNCPLPRKVRRCFLCSRRGHLLYSCPAPLCEYCPVPKMLDHSCLFRHSWDKQCDRCHMLGHYTDACTEIWRQYHLTTKPGPPKKPKTPSRPSALAYCYHCAQKGHYGHECPEREVYDPSPVSPFICYYDDKYEIQEREKRLKQKIKVLKKNGVIPEPSKLPYIKAANENPHHDIRKGRASWKSNRWPQENKETQKEMKNKNRNWEKHRKADRHREVDEDFPRGPKTYSSPGSFKTQKPSKPFHRSSHYHTSREDKSPKEGKRGKQKKKERCWEDDDNDNLFLIKQRKKKS | 2 | NS3 | + | 1
4 | ZBTB1 (protein, UniProt Q9Y2K1 1-713, looked up) Zinc finger and BTB …: MAKPSHSSYVLQQLNNQREWGFLCDCCIAIDDIYFQAHKAVLAACSSYFRMFFMNHQHSTAQLNLSNMKISAECFDLILQFMYLGKIMTAPSSFEQFKVAMNYLQLYNVPDCLEDIQDADCSSSKCSSSASSKQNSKMIFGVRMYEDTVARNGNEANRWCAEPSSTVNTPHNREADEESLQLGNFPEPLFDVCKKSSVSKLSTPKERVSRRFGRSFTCDSCGFGFSCEKLLDEHVLTCTNRHLYQNTRSYHRIVDIRDGKDSNIKAEFGEKDSSKTFSAQTDKYRGDTSQAADDSASTTGSRKSSTVESEIASEEKSRAAERKRIIIKMEPEDIPTDELKDFNIIKVTDKDCNESTDNDELEDEPEEPFYRYYVEEDVSIKKSGRKTLKPRMSVSADERGGLENMRPPNNSSPVQEDAENASCELCGLTITEEDLSSHYLAKHIENICACGKCGQILVKGRQLQEHAQRCGEPQDLTMNGLGNTEEKMDLEENPDEQSEIRDMFVEMLDDFRDNHYQINSIQKKQLFKHSACPFRCPNCGQRFETENLVVEHMSSCLDQDMFKSAIMEENERDHRRKHFCNLCGKGFYQRCHLREHYTVHTKEKQFVCQTCGKQFLRERQLRLHNDMHKGMARYVCSICDQGNFRKHDHVRHMISHLSAGETICQVCFQIFPNNEQLEQHMDVHLYTCGICGAKFNLRKDMRSHYNAKHLKRT | 1 | NS3 | + | –
5 | ZHX3 (protein, UniProt Q9H4I2 1-956, looked up) Zinc fingers and homeoboxes …: MASKRKSTTPCMIPVKTVVLQDASMEAQPAETLPEGPQQDLPPEASAASSEAAQNPSSTDGSTLANGHRSTLDGYLYSCKYCDFRSHDMTQFVGHMNSEHTDFNKDPTFVCSGCSFLAKTPEGLSLHNATCHSGEASFVWNVAKPDNHVVVEQSIPESTSTPDLAGEPSAEGADGQAEIIITKTPIMKIMKGKAEAKKIHTLKENVPSQPVGEALPKLSTGEMEVREGDHSFINGAVPVSQASASSAKNPHAANGPLIGTVPVLPAGIAQFLSLQQQPPVHAQHHVHQPLPTAKALPKVMIPLSSIPTYNAAMDSNSFLKNSFHKFPYPTKAELCYLTVVTKYPEEQLKIWFTAQRLKQGISWSPEEIEDARKKMFNTVIQSVPQPTITVLNTPLVASAGNVQHLIQAALPGHVVGQPEGTGGGLLVTQPLMANGLQATSSPLPLTVTSVPKQPGVAPINTVCSNTTSAVKVVNAAQSLLTACPSITSQAFLDASIYKNKKSHEQLSALKGSFCRNQFPGQSEVEHLTKVTGLSTREVRKWFSDRRYHCRNLKGSRAMIPGDHSSIIIDSVPEVSFSPSSKVPEVTCIPTTATLATHPSAKRQSWHQTPDFTPTKYKERAPEQLRALESSFAQNPLPLDEELDRLRSETKMTRREIDSWFSERRKKVNAEETKKAEENASQEEEEAAEDEGGEEDLASELRVSGENGSLEMPSSHILAERKVSPIKINLKNLRVTEANGRNEIPGLGACDPEDDESNKLAEQLPGKVSCKKTAQQRHLLRQLFVQTQWPSNQDYDSIMAQTGLPRPEVVRWFGDSRYALKNGQLKWYEDYKRGNFPPGLLVIAPGNRELLQDYYMTHKMLYEEDLQNLCDKTQMSSQQVKQWFAEKMGEETRAVADTGSEDQGPGTGELTAVHKGMGDTYSEVSENSESWEPRVPEASSEPFDTSSPQAGRQLETD | 4 | NS3 | + | –
